Test results from article PMC4837482, “The complex binding mode of the peptide hormone H2 relaxin to its receptor RXFP1” (Nature Communications, 2016).
Where no end group is shown, it is not given here. The star is where a group is joined. DTPA = O=C(O)CN(CCN(CC(=O)O)CC(=O)O)CCN(CC(=O)O)CC(=O)*

Experiments:
LRR domain of RXFP1 = experiment: Affinity for the LRR domain predicted from the titration data; design: species or system human; settings: predicted from the RXFP1(1–72) titration data
RXFP1 F50A = target: T1, RXFP1 F50A (Homo sapiens, UniProt Q9HBX9, F72A); experiment: Eu-H2 relaxin saturation binding assay, transfected HEK293T cells; settings: F50A RXFP1 versus wild-type RXFP1
T1 construct: expressed in transfected cells; host or cells: HEK293T
T1 sequence (Q9HBX9 23-757 F72A limits assumed): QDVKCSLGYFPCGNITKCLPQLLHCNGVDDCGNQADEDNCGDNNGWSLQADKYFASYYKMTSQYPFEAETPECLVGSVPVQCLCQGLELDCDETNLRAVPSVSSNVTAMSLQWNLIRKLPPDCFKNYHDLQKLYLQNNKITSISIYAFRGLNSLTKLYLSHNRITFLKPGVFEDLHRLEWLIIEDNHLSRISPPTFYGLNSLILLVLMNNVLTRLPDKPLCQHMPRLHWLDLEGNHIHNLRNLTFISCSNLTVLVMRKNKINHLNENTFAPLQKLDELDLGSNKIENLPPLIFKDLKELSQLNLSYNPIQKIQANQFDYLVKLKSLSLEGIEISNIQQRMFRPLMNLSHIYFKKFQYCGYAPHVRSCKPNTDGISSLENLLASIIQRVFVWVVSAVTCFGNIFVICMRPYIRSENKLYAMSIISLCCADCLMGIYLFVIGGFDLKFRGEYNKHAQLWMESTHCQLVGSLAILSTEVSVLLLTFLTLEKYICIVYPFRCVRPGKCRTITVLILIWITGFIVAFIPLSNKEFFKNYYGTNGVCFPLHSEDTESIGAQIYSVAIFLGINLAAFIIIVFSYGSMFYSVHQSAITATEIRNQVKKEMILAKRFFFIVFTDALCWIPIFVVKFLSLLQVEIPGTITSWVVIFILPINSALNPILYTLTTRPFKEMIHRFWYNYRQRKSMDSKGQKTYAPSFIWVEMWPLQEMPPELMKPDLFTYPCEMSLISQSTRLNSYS

RXFP1 F54A/Y58A = target: T2, RXFP1 F54A/Y58A (Homo sapiens, UniProt Q9HBX9, F76A/Y80A); experiment: as above; settings: F54A/Y58A RXFP1 versus wild-type RXFP1
T2 construct: cells expressing full-length RXFP1 and mutants; expressed in transfected cells; host or cells: HEK293T
T2 sequence (Q9HBX9 23-757 F76A/Y80A limits assumed): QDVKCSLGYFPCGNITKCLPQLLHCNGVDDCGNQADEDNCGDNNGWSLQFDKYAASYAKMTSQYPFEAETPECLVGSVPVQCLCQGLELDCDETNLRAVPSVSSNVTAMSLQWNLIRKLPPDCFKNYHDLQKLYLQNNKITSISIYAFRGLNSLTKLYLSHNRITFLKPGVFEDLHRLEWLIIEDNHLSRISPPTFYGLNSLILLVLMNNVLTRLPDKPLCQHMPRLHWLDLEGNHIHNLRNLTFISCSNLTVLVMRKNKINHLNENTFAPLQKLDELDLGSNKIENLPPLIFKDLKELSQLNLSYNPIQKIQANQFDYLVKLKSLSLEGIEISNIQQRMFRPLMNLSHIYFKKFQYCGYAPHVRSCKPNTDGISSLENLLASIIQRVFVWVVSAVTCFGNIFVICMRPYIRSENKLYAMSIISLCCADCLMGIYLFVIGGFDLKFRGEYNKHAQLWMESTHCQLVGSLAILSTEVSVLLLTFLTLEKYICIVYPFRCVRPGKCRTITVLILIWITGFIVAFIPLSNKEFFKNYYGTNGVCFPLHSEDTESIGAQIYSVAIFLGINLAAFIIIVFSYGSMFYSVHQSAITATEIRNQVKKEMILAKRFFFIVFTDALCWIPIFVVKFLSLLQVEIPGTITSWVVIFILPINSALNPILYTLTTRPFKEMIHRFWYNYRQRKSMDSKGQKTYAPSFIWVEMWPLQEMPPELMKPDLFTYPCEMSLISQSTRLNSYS

[1] = target: RXFP1 F50A, full length (human)
[2] = target: T3, RXFP1 D51A, full length (human)
T3 sequence (Q9HBX9 1-757 with D51A, looked up): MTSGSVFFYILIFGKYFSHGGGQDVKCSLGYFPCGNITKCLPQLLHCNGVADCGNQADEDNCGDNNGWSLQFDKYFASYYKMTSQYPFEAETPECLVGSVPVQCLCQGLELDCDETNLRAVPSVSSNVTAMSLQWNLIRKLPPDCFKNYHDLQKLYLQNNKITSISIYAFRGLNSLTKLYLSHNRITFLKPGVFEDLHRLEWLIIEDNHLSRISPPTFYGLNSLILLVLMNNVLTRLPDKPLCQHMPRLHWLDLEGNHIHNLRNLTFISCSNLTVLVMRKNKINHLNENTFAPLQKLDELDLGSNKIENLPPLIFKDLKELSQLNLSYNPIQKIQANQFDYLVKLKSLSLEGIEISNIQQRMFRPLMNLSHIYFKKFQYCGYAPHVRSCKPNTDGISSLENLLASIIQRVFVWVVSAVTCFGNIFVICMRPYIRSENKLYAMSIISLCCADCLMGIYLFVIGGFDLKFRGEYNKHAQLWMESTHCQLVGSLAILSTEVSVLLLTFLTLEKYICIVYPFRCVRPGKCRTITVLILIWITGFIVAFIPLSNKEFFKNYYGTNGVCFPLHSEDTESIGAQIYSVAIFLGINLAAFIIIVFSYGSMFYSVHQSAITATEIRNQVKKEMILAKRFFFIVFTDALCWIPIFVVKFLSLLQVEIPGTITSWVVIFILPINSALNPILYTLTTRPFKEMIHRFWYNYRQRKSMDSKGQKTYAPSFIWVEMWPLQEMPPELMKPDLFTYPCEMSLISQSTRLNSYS

[3] = target: RXFP1 N43A/N44A, full length (human)
[4] = target: RXFP1 M60A, full length (human)
[5] = target: RXFP1 G41A, full length (human)
[6] = target: relaxin family peptide receptor-1 (RXFP1), wild type, full length (human) (UniProt Q9HBX9)
[7] = target: RXFP1 F54A, full length (human)
[8] = target: RXFP1 F54A, full length (human); experiment: europium-labelled ligand saturation binding on cells (time-resolved fluorescence); HEK293T cells transiently transfected with receptor, 96-well plates; increasing Eu-H2 relaxin (maximum 15 nM) with or without 1 μM unlabelled H2 relaxin, 1 h, room temperature; 20 mM HEPES pH 7.5, […] CaCl2, 50 mM NaCl, 0.01% NaN3, 1% BSA; one-site fit
[9] = target: RXFP1 C40A^ins, full length (human); experiment: as above

## H2 relaxin: two-chain 6-kDa peptide hormone structurally related to insulin; recombinant human gene-2 H2 relaxin provided by Corthera
LRR domain of RXFP1
  Kd: ~1000 nM
RXFP1 F50A
  loss in H2 relaxin binding: tenfold
RXFP1 F54A/Y58A
  loss in H2 relaxin binding: tenfold

B1: H2 relaxin (ligand, human)
chain 1: QLYSALANKCCHVGCTKRSLARFC
chain 2: DSWMEEVIKLCGRELVRAQIAICGMSTWS
[1]
  H2 relaxin-induced cAMP response (pCRE β-galactosidase reporter, HEK293T), pEC50: 9.45 pEC50
[2]
  H2 relaxin-induced cAMP response (pCRE β-galactosidase reporter, HEK293T), pEC50: 11 pEC50
[3]
  H2 relaxin-induced cAMP response (pCRE β-galactosidase reporter, HEK293T), pEC50: 8.29 pEC50
[4]
  H2 relaxin-induced cAMP response (pCRE β-galactosidase reporter, HEK293T), pEC50: 11.2 pEC50
[5]
  H2 relaxin-induced cAMP response (pCRE β-galactosidase reporter, HEK293T), pEC50: 11.1 pEC50
[6]
  H2 relaxin-induced cAMP response (pCRE β-galactosidase reporter, HEK293T), pEC50: 11 pEC50
[7]
  H2 relaxin-induced cAMP response (pCRE β-galactosidase reporter, HEK293T), pEC50: 10.2 pEC50

B2: Europium-labelled H2 relaxin (ligand, human)
chain 1: {DTPA}-QLYSALANKCCHVGCTKRSLARFC
chain 2: DSWMEEVIKLCGRELVRAQIAICGMSTWS
modifications: not fully specified; ends and bridges not checked; also: DTPA cage loaded with Eu^3+
notes: A chain of human gene-2 (H2) relaxin; numbers count on: the A chain; B chain of human gene-2 (H2) relaxin; numbers count on: the B chain; also called Eu-H2 relaxin; Eu-H2
[8]
  Kd: 2.43 nM
[9]
  Kd: 3.92 nM
